Reference: patent US20180111972A1 (Stanford University, published 2018)
Positions count from the first letter of the chain named. Names and notes keep the numbering of the source.

B1: PVAM-S (PV R32A), soluble, FLAG and hexahistidine tags (designed binder)
chain: DYKDDDDKIAEPAMIAECHPIETLVDILQEYPDEIGYIFKPSCVPLMRCGGCCNNRNVQCRPTEESNITMQIMRIKPHRGQHIGEMSFLQHNKCRCETVAAGSTSGSGKSSEGKGEVVKFMDVYQRSYCKTRTEVFEISRRLIDATNANFLVWPPCVEVQRCSGCCNHEGLECVPTQVQLRPVQVRKIEFVRKKPIFKKATVTLEDHLACECRPKKDHHHHHH
notes: Secreted from S. cerevisiae YVH10 and treated with Endo Hf
B2: PV6 PDGF/VEGF chimera, soluble, N-terminal FLAG and C-terminal hexahistidine tags (designed binder)
chain: B1 chain with L28F, G36E, R79Q, R95K, A145R, H168D, F190I, E211K
notes: Secreted from S. cerevisiae YVH10 and treated with Endo Hf; also called soluble PV6

Experiments:
[1] = molecular target: T1, human VEGFR on human umbilical vein endothelial cells (HUVECs) (human, UniProt P35968 20-1356); assay: flow cytometry on HUVECs, soluble ligand titrated
T1 construct: The phosphorylation blots on these cells detect VEGFR2
T1 sequence (P35968 20-1356 limits assumed): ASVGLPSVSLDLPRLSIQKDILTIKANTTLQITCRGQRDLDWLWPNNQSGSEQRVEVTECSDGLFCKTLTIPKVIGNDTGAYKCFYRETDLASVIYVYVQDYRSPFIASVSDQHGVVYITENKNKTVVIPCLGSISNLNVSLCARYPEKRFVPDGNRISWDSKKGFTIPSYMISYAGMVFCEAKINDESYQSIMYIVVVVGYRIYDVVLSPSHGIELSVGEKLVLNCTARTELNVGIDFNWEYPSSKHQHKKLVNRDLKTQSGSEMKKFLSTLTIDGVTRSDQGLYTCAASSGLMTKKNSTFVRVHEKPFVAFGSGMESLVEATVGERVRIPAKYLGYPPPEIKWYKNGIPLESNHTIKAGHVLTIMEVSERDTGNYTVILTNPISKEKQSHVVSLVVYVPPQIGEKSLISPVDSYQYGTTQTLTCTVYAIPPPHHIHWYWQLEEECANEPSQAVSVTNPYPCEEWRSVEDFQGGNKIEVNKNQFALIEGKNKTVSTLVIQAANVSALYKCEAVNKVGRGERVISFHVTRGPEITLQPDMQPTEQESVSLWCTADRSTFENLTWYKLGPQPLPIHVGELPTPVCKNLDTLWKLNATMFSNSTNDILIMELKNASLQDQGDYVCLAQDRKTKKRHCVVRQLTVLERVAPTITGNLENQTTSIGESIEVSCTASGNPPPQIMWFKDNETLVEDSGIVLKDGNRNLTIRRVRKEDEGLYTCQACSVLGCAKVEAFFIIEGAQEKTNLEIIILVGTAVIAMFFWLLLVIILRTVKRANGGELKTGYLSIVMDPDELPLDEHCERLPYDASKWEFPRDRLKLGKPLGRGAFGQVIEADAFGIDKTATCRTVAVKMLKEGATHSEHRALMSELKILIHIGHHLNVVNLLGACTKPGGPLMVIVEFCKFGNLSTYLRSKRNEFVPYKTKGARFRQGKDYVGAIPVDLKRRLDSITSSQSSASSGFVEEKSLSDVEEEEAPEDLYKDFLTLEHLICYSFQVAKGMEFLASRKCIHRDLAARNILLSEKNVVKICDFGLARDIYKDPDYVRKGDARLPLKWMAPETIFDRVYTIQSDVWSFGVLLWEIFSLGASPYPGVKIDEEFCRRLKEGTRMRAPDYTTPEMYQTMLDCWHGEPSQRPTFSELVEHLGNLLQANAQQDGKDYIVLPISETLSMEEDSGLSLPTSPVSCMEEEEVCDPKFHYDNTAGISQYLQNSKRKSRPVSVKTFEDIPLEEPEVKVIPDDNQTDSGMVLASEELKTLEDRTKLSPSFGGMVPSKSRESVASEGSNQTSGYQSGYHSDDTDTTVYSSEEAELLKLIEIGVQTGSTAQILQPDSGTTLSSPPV

[2] = molecular target: T1, human VEGFR on human umbilical vein …; assay: flow cytometry on HUVECs, soluble ligand titrated 3 h at 4 C, anti-FLAG-PE
Description: Cells were incubated with various concentrations of hybrid PDGF/VEGF for 3 hours at 4° C. Binding was detected using an R-PE-conjugated anti-FLAG antibody, then analyzed by flow cytometry.

[3] = molecular target: T1, human VEGFR on human umbilical vein …; assay: cell-based or functional assay

Row | Binder | fold improvement over the bivalent scVEGFwt [1] [fold] | Kd [2] [nM] | IC50 of inhibition of HUVEC proliferation induced by 0.5 nM VEGF165, alamarBlue [3] [nM]
1 | B1 | 7.5 | 0.2 | 
2 | B2 |  |  | 110
